Substrate: CC(C)[C@@H]1CC[C@@H](C)C[C@H]1O
Test: LC-MS/MS (MRM) of menthol glucoside, Lineweaver-Burk
Format: biochemical, Bacillus licheniformis
Conditions: UDP-glucose as sugar donor (2 mM in the general protocol), 1 mM MgCl2, 50 mM Tris-HCl pH 8.0, 30 °C, 10 min

B1: BLC (Bacillus licheniformis DSM 13 = ATCC 14580) (protein)
chain: MGHKHIAIFNIPAHGHINPTLALTASLVKRGYRVTYPVTDEFVKAVEETGAEPLNYRSTLNIDPQQIRELMKNKKDMSQAPLMFIKEMEEVLPQLEALYENDKPDLILFDFMAMAGKLLAEKFGIEAVRLCSTYAQNEHFTFRSISEEFKIELTPEQEDALKNSNLPSFNFEDMFEPAKLNIVFMPRAFQPYGETFDERFSFVGPSLAKRKFQEKETPIISDSGRPVMLISLGTAFNAWPEFYHMCIEAFRDTKWQVIMAVGTTIDPESFDDIPENFSIHQRVPQLEILKKAELFITHGGMNSTMEGLNAGVPLVAVPQMPEQEITARRVEELGLGKHLQPEDTTAASLREAVSQTDGDPHVLKRIQDMQKHIKQAGGAEKAADEIEAFLAPAGVK
notes: His-tagged, pET28a (BamHI/XhoI), expressed in E. coli BL21(DE3), Ni-NTA purified; cloned as in Wu et al. 2012
B1 was tested, and the Km was 1740 ± 600 µM and the kcat was 1.58 ± 0.0388 s⁻¹.

From publication PMC5574827, “Improvement of the pharmacological activity of menthol via enzymatic β-anomer-selective glycosylation” (AMB Express, 2017)
